{"source": "paper PMC9241661", "molecular_target": "endogenous PTEN-induced kinase 1 (PINK1) (human (endogenous in Huh7)) (UniProt Q9BXM7)", "sequence (Q9BXM7 78-581)": "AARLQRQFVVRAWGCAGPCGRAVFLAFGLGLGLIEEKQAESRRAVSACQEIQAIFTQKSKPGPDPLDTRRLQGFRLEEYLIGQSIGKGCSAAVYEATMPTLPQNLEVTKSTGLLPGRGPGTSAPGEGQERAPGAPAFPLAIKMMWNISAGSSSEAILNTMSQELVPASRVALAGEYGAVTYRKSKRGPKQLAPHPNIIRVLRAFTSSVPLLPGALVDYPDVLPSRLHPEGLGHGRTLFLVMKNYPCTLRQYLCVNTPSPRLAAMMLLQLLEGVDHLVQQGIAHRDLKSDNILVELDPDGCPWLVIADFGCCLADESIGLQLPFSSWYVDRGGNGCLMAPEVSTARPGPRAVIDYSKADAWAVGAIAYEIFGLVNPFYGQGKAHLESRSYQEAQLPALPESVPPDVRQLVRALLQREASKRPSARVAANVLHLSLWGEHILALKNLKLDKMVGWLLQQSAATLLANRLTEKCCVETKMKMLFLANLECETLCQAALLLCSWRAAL", "experiment": "proximity ligation", "data": [{"substance": "JEV-NS4A made in JEV-infected Huh7 cells (from UniProt P27395 2124-2249) (natural protein)", "values": [{"measurement": "fluorescent dots per cell (PLA) (fluorescent dots per cell)", "result": 20}]}]}
